Data set [1] deals with HeLa Kyoto. As to the kind of experiment: solubility in G1/S (NP-40 vs SDS abundance) (log2 ratio); higher = more soluble. The settings on record: cell cycle stage: G1/S.
Data set [2] relates to HeLa Kyoto. As to the kind of experiment: thermal stability score vs G1/S (z-score of summed log2 fold changes over temperatures); higher = more thermally stable than in G1/S.
Data set [3] has as its system HeLa Kyoto. As to the kind of experiment: solubility change mitosis vs G1/S (difference of NP-40 vs SDS log2 ratios) (log2 ratio difference); higher = more soluble in mitosis.
Data set [4] relates to HeLa Kyoto. As to the kind of experiment: melting temperature (median over replicates), in situ; higher = more thermally stable.
[5] abbreviates: cell cycle stage: early G1 (4.5 h after nocodazole release).
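Wherever melting temperature (median over replicates), in situ is given: HeLa Kyoto cells synchronized by double thymidine or nocodazole block, proteins quantified by TMT10plex mass spectrometry, three independent biological replicates.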
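Wherever solubility change mitosis vs G1/S (difference of NP-40 vs SDS log2 ratios) is given: synchronized HeLa Kyoto cells (double thymidine block for G1/S, nocodazole release for mitosis), protein amounts in NP-40 versus SDS lysates quantified by mass spectrometry, three biological replicates.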
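Wherever solubility in G1/S (NP-40 vs SDS abundance) is given: HeLa Kyoto cells arrested at G1/S by double thymidine block, proteins quantified by TMT10plex mass spectrometry in mild NP-40 versus SDS extracts, three biological replicates.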
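Wherever thermal stability score vs G1/S (z-score of summed log2 fold changes over temperatures) is given: synchronized HeLa Kyoto cells, proteins quantified by TMT10plex mass spectrometry, three biological replicates, mitosis taken 0.5 h after nocodazole release, G1/S directly after double thymidine block.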

“MENEPDHENVEQSLCAKTSEEELNKSFNLEASLSKFSYIDMDKELEFKNDLIDDKEFDIPQVDTPPTLESILNETDDEDESFILEDPTLLNIDTIDSHSYDTSSVASSDSGDRTNLKRKKKLPDSFSLHGSVMRHSLLKGISAQIVSAADKVDAGLPTAIAVSSLIAVGTSHGLALIFGKDQNQALRLCLGSTSVGGQYGAISALSINNDCSRLLCGFAKGQITMWDLASGKLLRSITDAHPPGTAILHIKFTDDPTLAICNDSGGSVFELTFKRVMGVRTCESRCLFSGSKGEVCCIEPLHSKPELKDHPITQFSLLAMASLTKILVIGLKPSLKVWMTFPYGRMDPSSVPLLAWHFVAVQNYVNPMLAFCRGDVVHFLLVKRDESGAIHVTKQKHLHLYYDLINFTWINSRTVVLLDSVEKLHVIDRQTQEELETVEISEVQLVYNSSHFKSLATGGNVSQALALVGEKACYQSISSYGGQIFYLGTKSVYVMMLRSWRERVDHLLKQDCLTEALALAWSFHEGKAKAVVGLSGDASKRKAIVADRMVEILFHYADRALKKCPDQGKIQVMEQHFQDMVPVIVDYCLLLQRKDLLFSQMYDKLSENSVAKGVFLECLEPYILSDKLVGITPQVMKDLIVHFQDKKLMENVEALIVHMDITSLDIQQVVLMCWENRLYDAMIYVYNRGMNEFISPMEKLFRVIAPPLNAGKTLTDEQVVMGNKLLVYISCCLAGRAYPLGDIPEDLVPLVKNQVFEFLIRLHSAEASPEEEIYPYIRTLLHFDTREFLNVLALTFEDFKNDKQAVEYQQRIVDILLKVMVENSDFTPSQVGCLFTFLARQLAKPDNTLFVNRTLFDQVLEFLCSPDDDSRHSERQQVLLELLQAGGIVQFEESRLIRMAEKAEFYQICEFMYEREHQYDKIIDCYLRDPLREEEVFNYIHNILSIPGHSAEEKQSVWQKAMDHIEELVSLKPCKAAELVATHFSGHIETVIKKLQNQVLLFKFLRSLLDPREGIHVNQELLQISPCITEQFIELLCQFNPTQVIETLQVLECYRLEETIQITQKYQLHEVTAYLLEKKGDIHGAFLIMLERLQSKLQEVTHQGENTKEDPSLKDVEDTMVETIALCQRNSHNLNQQQREALWFPLLEAMMAPQKLSSSAIPHLHSEALKSLTMQVLNSMAAFIALPSILQRILQDPVYGKGKLGEIQGLILGMLDTFNYEQTLLETTTSLLNQDLHWSLCNLRASVTRGLNPKQDYCSICLQQYKRRQEMADEIIVFSCGHLYHSFCLQNKECTVEFEGQTRWTCYKCSSSNKVGKLSENSSEIKKGRITPSQVKMSPSYHQSKGDPTAKKGTSEPVLDPQQIQAFDQLCRLYRGSSRLALLTELSQNRSSESYRPFSGSQSAPAFNSIFQNENFQLQLIPPPVTED [VPS8]”: the “solubility in G1/S (log2)” value in the data set with HeLa Kyoto [1] is -0.292. For the same substance, the thermal stability score in the data set on HeLa Kyoto [2] (setting [5]) came out at 0.78; in the data set with HeLa Kyoto [2] (cell cycle stage: mitosis), 1.34. Moreover, the “solubility change mitosis (log2)” value with HeLa Kyoto [3] was -0.056. Also, the figures for the melting temperature in the data set with HeLa Kyoto [4] (cell cycle stage: G1/S) and with HeLa Kyoto [4] (cell cycle stage: mitosis) were 52.2 °C and 50.1 °C, respectively.
As for “MLDFLAENNLCGQAILRIVSCGNAIIAELLRLSEFIPAVFRLKDRADQQKYGDIIFDFSYFKGPELWESKLDAKPELQDLDEEFRENNIEIVTRFYLAFQSVHKYIVDLNRYLDDLNEGVYIQQTLETVLLNEDGKQLLCEALYLYGVMLLVIDQKIEGEVRERMLVSYYRYSAARSSADSNMDDICKLLRSTGYSSQPGAKRPSNYPESYFQRVPINESFISMVIGRLRSDDIYNQVSAYPLPEHRSTALANQAAMLYVILYFEPSILHTHQAKMREIVDKYFPDNWVISIYMGITVNLVDAWEPYKAAKTALNNTLDLSNVREQASRYATVSERVHAQVQQFLKEGYLREEMVLDNIPKLLNCLRDCNVAIRWLMLHTADSACDPNNKRLRQIKDQILTDSRYNPRILFQLLLDTAQFEFILKEMFKQMLSEKQTKWEHYKKEGSERMTELADVFSGVKPLTRVEKNENLQAWFREISKQILSLNYDDSTAAGRKTVQLIQALEEVQEFHQLESNLQVCQFLADTRKFLHQMIRTINIKEEVLITMQIVGDLSFAWQLIDSFTSIMQESIRVNPSMVTKLRATFLKLASALDLPLLRINQANSPDLLSVSQYYSGELVSYVRKVLQIIPESMFTSLLKIIKLQTHDIIEVPTRLDKDKLRDYAQLGPRYEVAKLTHAISIFTEGILMMKTTLVGIIKVDPKQLLEDGIRKELVKRVAFALHRGLIFNPRAKPSELMPKLKELGATMDGFHRSFEYIQDYVNIYGLKIWQEEVSRIINYNVEQECNNFLRTKIQDWQSMYQSTHIPIPKFTPVDESVTFIGRLCREILRITDPKMTCHIDQLNTWYDMKTHQEVTSSRLFSEIQTTLGTFGLNGLDRLLCFMIVKELQNFLSMFQKIILRDRTVQDTLKTLMNAVSPLKSIVANSNKIYFSAIAKTQKIWTAYLEAIMKVGQMQILRQQIANELNYSCRFDSKHLAAALENLNKALLADIEAHYQDPSLPYPKEDNTLLYEITAYLEAAGIHNPLNKIYITTKRLPYFPIVNFLFLIAQLPKLQYNKNLGMVCRKPTDPVDWPPLVLGLLTLLKQFHSRYTEQFLALIGQFICSTVEQCTSQKIPEIPADVVGALLFLEDYVRYTKLPRRVAEAHVPNFIFDEFRTVL [KIAA0196]”, the “solubility in G1/S (log2)” value in the data set with HeLa Kyoto [1] was -0.217. The thermal stability score is 0.232 in the data set on HeLa Kyoto [2] (setting [5]) and -0.00652 in the data set on HeLa Kyoto [2] (cell cycle stage: mitosis). Moreover, the “solubility change mitosis (log2)” value with HeLa Kyoto [3] is -0.117. For the same substance, the melting temperature in the data set on HeLa Kyoto [4] (cell cycle stage: G1/S) amounted to 50.7 °C; in the data set with HeLa Kyoto [4] (cell cycle stage: mitosis), 50 °C.
Consider KPNA6, for which the “solubility in G1/S (log2)” value with HeLa Kyoto [1] came out at 0.0416. Moreover, the values for the thermal stability score in the data set with HeLa Kyoto [2] (setting [5]) and in the data set with HeLa Kyoto [2] (cell cycle stage: mitosis) were 1.85 and 4.59, respectively. The “solubility change mitosis (log2)” value with HeLa Kyoto [3] was -0.0516. Further, the results for the melting temperature in the data set on HeLa Kyoto [4] (cell cycle stage: G1/S) and in the data set on HeLa Kyoto [4] (cell cycle stage: mitosis) were 47.6 °C and 48.8 °C, respectively.
For “MAALYRPGLRLNWHGLSPLGWPSCRSIQTLRVLSGDLGQLPTGIRDFVEHSARLCQPEGIHICDGTEAENTATLTLLEQQGLIRKLPKYNNCWLARTDPKDVARVESKTVIVTPSQRDTVPLPPGGARGQLGNWMSPADFQRAVDERFPGCMQGRTMYVLPFSMGPVGSPLSRIGVQLTDSAYVVASMRIMTRLGTPVLQALGDGDFVKCLHSVGQPLTGQGEPVSQWPCNPEKTLIGHVPDQREIISFGSGYGGNSLLGKKCFALRIASRLARDEGWLAEHMLILGITSPAGKKRYVAAAFPSACGKTNLAMMRPALPGWKVECVGDDIAWMRFDSEGRLRAINPENGFFGVAPGTSATTNPNAMATIQSNTIFTNVAETSDGGVYWEGIDQPLPPGVTVTSWLGKPWKPGDKEPCAHPNSRFCAPARQCPIMDPAWEAPEGVPIDAIIFGGRRPKGVPLVYEAFNWRHGVFVGSAMRSESTAAAEHKGKIIMHDPFAMRPFFGYNFGHYLEHWLSMEGRKGAQLPRIFHVNWFRRDEAGHFLWPGFGENARVLDWICRRLEGEDSARETPIGLVPKEGALDLSGLRAIDTTQLFSLPKDFWEQEVRDIRSYLTEQVNQDLPKEVLAELEALERRVHKM [PCK2]”, in the data set on HeLa Kyoto [1], the “solubility in G1/S (log2)” value turned out to be 0.00231. The values for the thermal stability score in the data set with HeLa Kyoto [2] (setting [5]) and in the data set with HeLa Kyoto [2] (cell cycle stage: mitosis) were -2.32 and -1.91, respectively. Moreover, the “solubility change mitosis (log2)” value in the data set on HeLa Kyoto [3] was -0.0852. For the same substance, the melting temperature was 52.8 °C in the data set on HeLa Kyoto [4] (cell cycle stage: G1/S) and 52.1 °C in the data set on HeLa Kyoto [4] (cell cycle stage: mitosis).
